Drawing on US20120253013A1, this text covers c-Met receptor phosphorylation on tyrosine 1234/1235 (PathScan Phospho-Met Sandwich ELISA), fold increase against Ad-lacZ for 1 substance.

For the assay, the target named is HGF receptor c-Met on uninfected HUVECs (human) (UniProt P08581). Briefly: cell-based or functional assay.
UniProt P08581, sequence (P08581 25-1390): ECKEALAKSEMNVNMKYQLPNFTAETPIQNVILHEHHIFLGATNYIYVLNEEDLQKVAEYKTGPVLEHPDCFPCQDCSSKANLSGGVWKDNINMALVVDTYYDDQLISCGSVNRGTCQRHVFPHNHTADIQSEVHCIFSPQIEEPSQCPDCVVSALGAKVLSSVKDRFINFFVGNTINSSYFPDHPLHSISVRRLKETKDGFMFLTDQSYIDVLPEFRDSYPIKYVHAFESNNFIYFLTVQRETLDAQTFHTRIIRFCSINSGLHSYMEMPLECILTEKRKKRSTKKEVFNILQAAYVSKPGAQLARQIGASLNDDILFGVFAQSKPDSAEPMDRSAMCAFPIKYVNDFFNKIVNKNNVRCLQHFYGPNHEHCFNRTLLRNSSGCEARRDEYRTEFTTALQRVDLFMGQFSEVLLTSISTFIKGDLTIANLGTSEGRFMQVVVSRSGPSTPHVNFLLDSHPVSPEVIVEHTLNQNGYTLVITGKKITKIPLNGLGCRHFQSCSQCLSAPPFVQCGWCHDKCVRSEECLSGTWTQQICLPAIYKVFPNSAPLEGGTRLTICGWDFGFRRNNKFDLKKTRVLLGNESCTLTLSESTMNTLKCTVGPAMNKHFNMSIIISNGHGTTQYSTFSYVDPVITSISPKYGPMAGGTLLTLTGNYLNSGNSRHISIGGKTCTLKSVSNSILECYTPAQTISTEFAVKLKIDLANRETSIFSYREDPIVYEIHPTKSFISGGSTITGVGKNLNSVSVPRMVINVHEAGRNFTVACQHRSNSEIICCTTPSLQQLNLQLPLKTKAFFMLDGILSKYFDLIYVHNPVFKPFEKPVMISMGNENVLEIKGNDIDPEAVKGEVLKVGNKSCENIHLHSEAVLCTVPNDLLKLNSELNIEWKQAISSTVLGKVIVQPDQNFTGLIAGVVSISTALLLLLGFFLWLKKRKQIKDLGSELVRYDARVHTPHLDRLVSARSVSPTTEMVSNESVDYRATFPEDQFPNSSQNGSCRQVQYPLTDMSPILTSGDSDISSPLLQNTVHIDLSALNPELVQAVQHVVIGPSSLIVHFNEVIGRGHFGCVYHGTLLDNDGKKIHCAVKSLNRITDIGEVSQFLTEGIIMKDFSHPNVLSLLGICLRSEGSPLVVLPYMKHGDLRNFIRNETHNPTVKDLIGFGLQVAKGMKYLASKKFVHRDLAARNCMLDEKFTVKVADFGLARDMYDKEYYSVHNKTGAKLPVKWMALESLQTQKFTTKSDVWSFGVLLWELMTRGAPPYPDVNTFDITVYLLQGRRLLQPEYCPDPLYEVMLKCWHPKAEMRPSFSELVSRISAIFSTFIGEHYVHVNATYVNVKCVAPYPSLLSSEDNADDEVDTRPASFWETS

Consider “hepatocyte growth factor (HGF) in conditioned medium from Ad-Egr3 infected HUVECs (from UniProt P14210 32-728) (ligand)”, for which the c-Met receptor phosphorylation on tyrosine 1234/1235 (PathScan Phospho-Met Sandwich ELISA), fold increase against Ad-lacZ was 1.8 fold.
